Measurements from patent US20180134794A1 (Regeneron, published 2018).

Key:
[1] = biological target: T1, human MET (c-Met, hepatocyte growth factor receptor), endogenous on human cell lines (human, UniProt P08581 25-1390); assay: flow cytometry, U87MG cells (endogenous MET, low), antibody 10 ug/ml
T1 construct: whole, on cells; also called HGFR
Experimental: (§1) After one additional wash with FACS buffer, samples were fixed with Cytofix (BD Biosciences, #554655), filtered with FACS buffer and run on an iQue flow cytometer (Intelicyte). Mean fluorescence intensity (MFI) data was determined using FlowJo software (FlowJo LLC).

[2] = biological target: T1, human MET (c-Met, hepatocyte growth …); assay: flow cytometry, MDA-MB-231 cells (endogenous MET, low), antibody 10 ug/ml
Experimental: as §1

[3] = biological target: T1, human MET (c-Met, hepatocyte growth …); assay: cell-based or functional assay
[4] = biological target: T1, human MET (c-Met, hepatocyte growth …); assay: flow cytometry, EBC-1 cells (endogenous MET), antibody 10 ug/ml
Experimental: as §1

[5] = biological target: T1, human MET (c-Met, hepatocyte growth …); assay: flow cytometry, A549 cells (endogenous MET), antibody 10 ug/ml
Experimental: as §1

[6] = biological target: T1, human MET (c-Met, hepatocyte growth …); assay: flow cytometry, Hs746t cells (endogenous MET), antibody 10 ug/ml
Experimental: as §1

[7] = biological target: T1, human MET (c-Met, hepatocyte growth …); assay: flow cytometry, NCI-H1993 cells (endogenous MET), antibody 10 ug/ml; expressed as fold above unstained
Experimental: as §1

[8] = biological target: T1, human MET (c-Met, hepatocyte growth …); assay: cell-based or functional assay; remark: listed apart in the source
[9] = biological target: T1, human MET (c-Met, hepatocyte growth …); assay: flow cytometry, SNU-5 cells (endogenous MET), antibody 10 ug/ml
Experimental: as §1

[10] = biological target: T1, human MET (c-Met, hepatocyte growth …); assay: flow cytometry, MKN-45 cells (endogenous MET), antibody 10 ug/ml
Experimental: as §1

[11] = biological target: T1, human MET (c-Met, hepatocyte growth …); assay: cell-based or functional assay; remark: listed apart in the source
[12] = biological target: T2, human MET (c-Met, HGFR) endogenously expressed on cell lines (human, UniProt P08581 25-1390); assay: cell-based or functional assay
[13] = biological target: T2, human MET (c-Met, HGFR) endogenously …; assay: cell-based or functional assay; remark: listed apart in the source

T1 sequence (P08581 25-1390 limits assumed, form in doubt): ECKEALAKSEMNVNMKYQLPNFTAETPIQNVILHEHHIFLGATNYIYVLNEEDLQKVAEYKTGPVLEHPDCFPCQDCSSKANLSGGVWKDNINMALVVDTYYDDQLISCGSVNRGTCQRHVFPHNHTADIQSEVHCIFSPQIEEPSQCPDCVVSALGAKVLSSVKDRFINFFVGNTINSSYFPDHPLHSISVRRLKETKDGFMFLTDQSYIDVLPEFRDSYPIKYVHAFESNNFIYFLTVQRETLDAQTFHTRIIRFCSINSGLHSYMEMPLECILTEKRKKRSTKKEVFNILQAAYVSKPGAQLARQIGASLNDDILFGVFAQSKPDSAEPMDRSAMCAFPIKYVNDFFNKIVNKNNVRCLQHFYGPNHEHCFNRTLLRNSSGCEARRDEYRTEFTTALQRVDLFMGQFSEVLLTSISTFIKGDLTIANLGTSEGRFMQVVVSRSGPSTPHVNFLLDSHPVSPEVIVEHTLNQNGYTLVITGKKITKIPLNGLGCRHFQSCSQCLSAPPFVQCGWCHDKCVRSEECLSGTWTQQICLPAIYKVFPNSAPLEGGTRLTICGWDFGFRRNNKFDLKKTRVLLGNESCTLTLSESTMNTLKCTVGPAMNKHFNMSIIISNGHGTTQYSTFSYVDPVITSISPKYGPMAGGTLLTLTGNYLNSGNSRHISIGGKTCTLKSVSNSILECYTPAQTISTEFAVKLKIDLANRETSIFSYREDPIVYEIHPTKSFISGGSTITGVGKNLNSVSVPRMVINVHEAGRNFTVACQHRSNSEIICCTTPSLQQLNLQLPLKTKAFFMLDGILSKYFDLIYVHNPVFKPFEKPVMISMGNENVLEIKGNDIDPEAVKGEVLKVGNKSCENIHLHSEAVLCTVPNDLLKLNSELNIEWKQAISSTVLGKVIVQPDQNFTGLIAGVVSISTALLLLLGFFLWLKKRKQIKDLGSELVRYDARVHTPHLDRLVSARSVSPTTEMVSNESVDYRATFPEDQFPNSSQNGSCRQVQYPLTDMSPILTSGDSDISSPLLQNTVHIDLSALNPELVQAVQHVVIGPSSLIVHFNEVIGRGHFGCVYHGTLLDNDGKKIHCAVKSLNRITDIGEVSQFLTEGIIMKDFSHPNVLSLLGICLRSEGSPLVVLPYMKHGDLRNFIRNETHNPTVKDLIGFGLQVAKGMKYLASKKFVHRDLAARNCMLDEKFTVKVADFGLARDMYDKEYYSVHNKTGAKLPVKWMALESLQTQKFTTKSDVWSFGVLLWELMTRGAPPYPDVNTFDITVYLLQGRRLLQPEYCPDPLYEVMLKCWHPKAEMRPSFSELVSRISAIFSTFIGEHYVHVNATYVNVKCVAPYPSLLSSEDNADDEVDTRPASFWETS
T2 sequence (P08581 25-1390): as the sequence (P08581 25-1390 limits assumed, form in doubt) above

B1: H4H14639D (bispecific antibody, human IgG4, V domains shown)
VH 1: EVQLVESGGGLVQPGTSLRLSCAASGFTFDDYAMHWVRQAPGKGLEWVSGITWNSYNIDYADSVKGRFTISRDNAKNSLYLQMNSLRAEDTALYYCAKDDDYSNYVYFDYWGQGTLVTVSS
VH 2: EVQLVESGGGLVQPGGSLRLSCAASGFIVTTNYMTWLRQAPGKGLEWVSLIYSSGHTYYADSVKGRFTISRHNSKNTLYLQMDSLRAEDTAVYYCASAFAADVFDIWGQGTMVTVSS
VL: not shown
notes: human IgG4 Fc; also called No. 122; MET×MET bispecific antibody
B1 was tested, and the “FACS Binding (MFI Fold Above Isotype Control)” value [1] was 18 fold, the “FACS Binding (MFI Fold Above Isotype Control)” value [2] was 12 fold and the “Relative MET Level, NCI-H596 cells, antibody 5 ug/ml, 18 hours, immunoblot” value [3] was 0.24 relative to control (hFc). For the same binder, the “FACS Binding (MFI Fold Above Isotype Control)” value [4] was 252 fold, the “FACS Binding (MFI Fold Above Isotype Control)” value [5] was 10 fold and the “FACS Binding (MFI Fold Above Isotype Control)” value [6] was 34 fold. The “FACS Binding (MFI fold above unstained, per footnote)” value [7] was 188 fold, the “% Inhibition (HEK293/SRE-Luc Blocking Activity, 1 h mAb pre-bind)” value [8] was 95% and the “EC50 (Ligand (HGF)-Independent HEK293/SRE-Luc Activation)” value [8] was 0.057 nM. For the same binder, the “Fold Response (Ligand (HGF)-Independent HEK293/SRE-Luc Activation)” value [8] was 1.8 fold, the “IC50 (HEK293/SRE-Luc Blocking Activity, 1 h mAb pre-bind)” value [8] was 0.024 nM and the “FACS Binding (MFI Fold Above Isotype Control)” value [9] was 454 fold. The “FACS Binding (MFI Fold Above Isotype Control)” value [10] was 156 fold.

B2: H4H14635D (bispecific antibody, human IgG4, V domains shown)
VH 1: QVQLVESGGGVVQPGRSLRVSCVVSGFTFSSFGMHWVRQAPDKGLEWVAVIWYDGSNDYYSDSVKGRFTISRDNSKNTLFLQMNRLRAEDTAVYYCARANNWNRFDAFDLWGQGTMVTVSS
VH 2: EVQLVESGGGLVQPGGSLRLSCAASGFIVTTNYMTWLRQAPGKGLEWVSLIYSSGHTYYADSVKGRFTISRHNSKNTLYLQMDSLRAEDTAVYYCASAFAADVFDIWGQGTMVTVSS
VL: not shown
notes: human IgG4 Fc; also called No. 42; MET×MET bispecific antibody
In the case of B2, the “FACS Binding (MFI Fold Above Isotype Control)” value [1] is reported as 18 fold, the “FACS Binding (MFI Fold Above Isotype Control)” value [2] is reported as 11 fold and the “FACS Binding (MFI Fold Above Isotype Control)” value [4] is reported as 263 fold. For the same binder, the “FACS Binding (MFI Fold Above Isotype Control)” value [5] was 12 fold, the “FACS Binding (MFI Fold Above Isotype Control)” value [6] was 39 fold and the “% Inhibition (HEK293/SRE-Luc Blocking Activity, 1 h mAb pre-bind)” value [8] was 85%. For the same binder, the “EC50 (Ligand (HGF)-Independent HEK293/SRE-Luc Activation)” value [8] was 1.4 nM, the “Fold Response (Ligand (HGF)-Independent HEK293/SRE-Luc Activation)” value [8] was 2.2 fold and the “IC50 (HEK293/SRE-Luc Blocking Activity, 1 h mAb pre-bind)” value [8] was 0.19 nM. For the same binder, the “FACS Binding (MFI Fold Above Isotype Control)” value [9] was 477 fold and the “FACS Binding (MFI Fold Above Isotype Control)” value [10] was 183 fold.

B3: H4H14639D-Maytansinoid A (bispecific antibody, human IgG4, V domains shown)
VH 1: EVQLVESGGGLVQPGTSLRLSCAASGFTFDDYAMHWVRQAPGKGLEWVSGITWNSYNIDYADSVKGRFTISRDNAKNSLYLQMNSLRAEDTALYYCAKDDDYSNYVYFDYWGQGTLVTVSS
VH 2: EVQLVESGGGLVQPGGSLRLSCAASGFIVTTNYMTWLRQAPGKGLEWVSLIYSSGHTYYADSVKGRFTISRHNSKNTLYLQMDSLRAEDTAVYYCASAFAADVFDIWGQGTMVTVSS
VL: not shown
modifications: conjugated with SMCC-DM1 diastereomer (Maytansinoid A); residues and chain of attachment not stated
B3 was tested, and the “IC50 (nM), 3-day in vitro cytotoxicity assay, MDA-MB-231 cells (low MET)” value [11] was over 100 nM, the “IC50 (nM), 3-day in vitro cytotoxicity assay, SNU-5 cells” value [11] was 0.4 nM and the “IC50 (nM), 3-day in vitro cytotoxicity assay, U87MG cells (low MET)” value [11] was 100 nM.

B4: H4H14639D (bispecific antibody, V domains shown)
VH 1: EVQLVESGGGLVQPGTSLRLSCAASGFTFDDYAMHWVRQAPGKGLEWVSGITWNSYNIDYADSVKGRFTISRDNAKNSLYLQMNSLRAEDTALYYCAKDDDYSNYVYFDYWGQGTLVTVSS
VH 2: EVQLVESGGGLVQPGGSLRLSCAASGFIVTTNYMTWLRQAPGKGLEWVSLIYSSGHTYYADSVKGRFTISRHNSKNTLYLQMDSLRAEDTAVYYCASAFAADVFDIWGQGTMVTVSS
VL: not shown
B4 was tested, and the “IC50 (read off the curve), inhibition of HGF-induced SRE-luciferase signal” value [12] was about 0.4 nM.

B5: H4H13312P2 (antibody, human IgG4, V domains shown)
VH: EVQLVESGGGLVQPGGSLRLSCAASGFIVTTNYMTWLRQAPGKGLEWVSLIYSSGHTYYADSVKGRFTISRHNSKNTLYLQMDSLRAEDTAVYYCASAFAADVFDIWGQGTMVTVSS
VL: not shown
With B5 the “EC50 (read off the curve), HGF-independent SRE-luciferase activation” value [13] was about 0.4 nM.
